Data published in the supplement of paper PMC6379048.

Columns and labels:
Test in all cases: Kd (EC50 corrected by depletion factor)
CNBP = CNBP (UniProt P62633)
Procedure, shortened: (§1)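 Kd was calculated as EC50, taken from a four-parameter log-logistic fit, multiplied by a protein-dependent depletion factor. The assay used HEK293-FT lysate (2.5 mg protein/well) pre-incubated for 1 h at 4°C with free RNA oligos (0 nM to 30 μM), then incubated for 30 min at 4°C with the matching oligos bound through a 5′-amino-C6 linker to NHS-Sepharose beads. Bound proteins were measured by label-free LC-MS/MS and normalised to the control.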

ZCCHC11 = ZCCHC11 (UniProt Q5TAX3)
Procedure, shortened: as §1

TRIM56 = target: T1, TRIM56 (UniProt Q9BRZ2)
T1 sequence: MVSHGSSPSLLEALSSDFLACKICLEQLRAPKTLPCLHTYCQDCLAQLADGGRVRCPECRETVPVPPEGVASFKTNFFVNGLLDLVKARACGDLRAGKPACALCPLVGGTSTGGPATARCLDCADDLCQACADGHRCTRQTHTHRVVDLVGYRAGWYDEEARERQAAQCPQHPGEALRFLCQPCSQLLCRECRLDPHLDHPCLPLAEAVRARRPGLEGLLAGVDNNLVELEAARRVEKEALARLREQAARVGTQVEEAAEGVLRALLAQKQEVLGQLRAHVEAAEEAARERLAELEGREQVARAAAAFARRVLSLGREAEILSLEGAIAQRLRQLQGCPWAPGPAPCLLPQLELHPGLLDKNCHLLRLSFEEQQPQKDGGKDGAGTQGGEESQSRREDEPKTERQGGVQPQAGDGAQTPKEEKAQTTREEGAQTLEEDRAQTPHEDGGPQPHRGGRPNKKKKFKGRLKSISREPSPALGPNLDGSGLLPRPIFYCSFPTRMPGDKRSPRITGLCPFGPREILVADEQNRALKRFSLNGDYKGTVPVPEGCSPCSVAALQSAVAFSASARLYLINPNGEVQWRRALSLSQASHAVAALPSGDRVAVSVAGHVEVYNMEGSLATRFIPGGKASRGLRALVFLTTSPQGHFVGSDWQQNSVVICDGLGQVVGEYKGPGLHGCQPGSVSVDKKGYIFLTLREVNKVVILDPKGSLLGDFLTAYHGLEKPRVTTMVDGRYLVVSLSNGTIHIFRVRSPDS
Procedure, shortened: as §1

MRPL38 = MRPL38 (UniProt Q96DV4)
Procedure, shortened: as §1

RPS3 = RPS3 (UniProt P23396)
Procedure, shortened: as §1

MRPL21 = MRPL21 (UniProt Q7Z2W9)
Procedure, shortened: as §1

RPSA = RPSA (UniProt P08865)
Procedure, shortened: as §1

RPS17 = RPS17 (UniProt P08708)
Procedure, shortened: as §1

TUBB2A = TUBB2A (UniProt Q13885)
Procedure, shortened: as §1

HSP90AB2P = HSP90AB2P (UniProt Q58FF8)
Procedure, shortened: as §1

GPALPP1 = target: T2, GPALPP1 (UniProt Q8IXQ4)
T2 sequence: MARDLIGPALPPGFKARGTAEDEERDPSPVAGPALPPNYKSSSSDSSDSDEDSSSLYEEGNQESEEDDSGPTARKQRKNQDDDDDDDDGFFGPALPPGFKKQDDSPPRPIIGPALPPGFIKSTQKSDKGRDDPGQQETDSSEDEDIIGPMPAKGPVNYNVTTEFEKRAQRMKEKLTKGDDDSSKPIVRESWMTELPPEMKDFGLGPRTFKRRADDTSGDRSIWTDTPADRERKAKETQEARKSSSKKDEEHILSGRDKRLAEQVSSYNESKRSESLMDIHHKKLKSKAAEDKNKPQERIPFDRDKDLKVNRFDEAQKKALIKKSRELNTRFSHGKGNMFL
Procedure, shortened: as §1

RBM47 = target: T3, RBM47 (UniProt A0AV96)
T3 sequence: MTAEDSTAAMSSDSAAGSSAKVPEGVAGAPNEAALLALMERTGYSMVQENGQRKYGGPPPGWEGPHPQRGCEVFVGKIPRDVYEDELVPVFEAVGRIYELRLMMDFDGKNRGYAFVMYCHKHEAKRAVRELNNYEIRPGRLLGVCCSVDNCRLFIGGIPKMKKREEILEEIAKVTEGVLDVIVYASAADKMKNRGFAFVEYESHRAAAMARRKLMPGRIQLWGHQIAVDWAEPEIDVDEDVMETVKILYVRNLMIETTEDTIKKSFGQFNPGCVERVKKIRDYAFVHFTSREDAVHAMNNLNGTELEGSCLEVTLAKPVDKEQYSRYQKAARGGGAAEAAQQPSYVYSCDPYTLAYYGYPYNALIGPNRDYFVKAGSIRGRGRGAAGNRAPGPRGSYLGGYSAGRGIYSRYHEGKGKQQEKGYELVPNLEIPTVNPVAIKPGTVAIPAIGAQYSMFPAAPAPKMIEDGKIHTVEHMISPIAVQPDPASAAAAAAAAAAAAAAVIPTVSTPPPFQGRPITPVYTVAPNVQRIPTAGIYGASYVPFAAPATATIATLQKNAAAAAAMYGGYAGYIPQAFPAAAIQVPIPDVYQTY
Procedure, shortened: as §1

TIA1 = target: T4, TIA1 (UniProt P31483)
T4 sequence: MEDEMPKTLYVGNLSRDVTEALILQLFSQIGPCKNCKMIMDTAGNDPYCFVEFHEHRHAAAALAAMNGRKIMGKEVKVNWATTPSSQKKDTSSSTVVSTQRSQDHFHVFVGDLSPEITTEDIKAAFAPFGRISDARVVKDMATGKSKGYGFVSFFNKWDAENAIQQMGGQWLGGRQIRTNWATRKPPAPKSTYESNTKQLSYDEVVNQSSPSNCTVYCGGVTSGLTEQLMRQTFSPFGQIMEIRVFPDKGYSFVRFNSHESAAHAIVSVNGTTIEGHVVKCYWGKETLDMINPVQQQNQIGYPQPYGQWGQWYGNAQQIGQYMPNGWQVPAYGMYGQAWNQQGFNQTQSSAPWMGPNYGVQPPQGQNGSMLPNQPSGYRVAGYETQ
Procedure, shortened: as §1

ZCCHC11, sequence (Q5TAX3 whole entry): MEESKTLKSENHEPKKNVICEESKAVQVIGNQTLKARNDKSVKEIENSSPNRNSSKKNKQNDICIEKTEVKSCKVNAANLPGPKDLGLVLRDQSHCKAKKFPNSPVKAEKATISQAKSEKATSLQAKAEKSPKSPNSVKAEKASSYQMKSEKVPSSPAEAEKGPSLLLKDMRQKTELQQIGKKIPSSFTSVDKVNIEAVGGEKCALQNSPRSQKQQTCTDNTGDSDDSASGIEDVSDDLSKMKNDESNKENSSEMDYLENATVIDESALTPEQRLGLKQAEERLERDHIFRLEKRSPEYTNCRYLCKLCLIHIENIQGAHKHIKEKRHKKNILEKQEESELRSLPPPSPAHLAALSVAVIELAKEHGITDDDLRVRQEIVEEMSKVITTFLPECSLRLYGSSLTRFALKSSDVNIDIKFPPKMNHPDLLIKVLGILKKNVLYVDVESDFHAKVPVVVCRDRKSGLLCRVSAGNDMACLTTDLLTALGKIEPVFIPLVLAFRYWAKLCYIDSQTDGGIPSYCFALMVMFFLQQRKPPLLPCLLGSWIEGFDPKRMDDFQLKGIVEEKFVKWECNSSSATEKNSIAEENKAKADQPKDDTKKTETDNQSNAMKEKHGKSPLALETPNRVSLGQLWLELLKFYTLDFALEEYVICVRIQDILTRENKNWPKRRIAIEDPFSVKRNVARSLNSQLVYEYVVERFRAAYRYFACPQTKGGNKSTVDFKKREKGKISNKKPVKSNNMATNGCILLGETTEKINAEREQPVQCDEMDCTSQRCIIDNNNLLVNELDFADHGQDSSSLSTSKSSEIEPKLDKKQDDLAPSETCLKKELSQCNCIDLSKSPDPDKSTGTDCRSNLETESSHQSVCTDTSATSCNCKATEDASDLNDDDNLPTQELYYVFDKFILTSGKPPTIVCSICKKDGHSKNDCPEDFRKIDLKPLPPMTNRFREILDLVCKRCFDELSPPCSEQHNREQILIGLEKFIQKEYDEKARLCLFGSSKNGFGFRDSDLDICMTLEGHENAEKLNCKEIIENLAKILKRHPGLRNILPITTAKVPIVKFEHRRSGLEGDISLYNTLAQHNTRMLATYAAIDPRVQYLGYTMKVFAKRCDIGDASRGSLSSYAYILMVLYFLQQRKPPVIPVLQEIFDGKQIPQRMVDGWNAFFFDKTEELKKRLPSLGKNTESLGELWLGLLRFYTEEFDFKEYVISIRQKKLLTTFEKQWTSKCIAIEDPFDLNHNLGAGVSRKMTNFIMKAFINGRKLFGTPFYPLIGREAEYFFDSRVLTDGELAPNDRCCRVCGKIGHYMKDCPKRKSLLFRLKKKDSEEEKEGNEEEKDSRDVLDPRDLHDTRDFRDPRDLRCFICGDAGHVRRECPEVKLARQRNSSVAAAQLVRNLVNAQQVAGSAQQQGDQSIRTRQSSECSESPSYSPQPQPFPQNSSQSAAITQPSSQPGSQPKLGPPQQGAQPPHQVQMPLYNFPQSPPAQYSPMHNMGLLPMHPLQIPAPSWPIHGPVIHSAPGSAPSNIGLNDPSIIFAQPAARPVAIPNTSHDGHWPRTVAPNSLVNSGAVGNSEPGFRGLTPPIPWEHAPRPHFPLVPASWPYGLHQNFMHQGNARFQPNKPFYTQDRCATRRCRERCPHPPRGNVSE
HSP90AB2P, sequence (Q58FF8 whole entry): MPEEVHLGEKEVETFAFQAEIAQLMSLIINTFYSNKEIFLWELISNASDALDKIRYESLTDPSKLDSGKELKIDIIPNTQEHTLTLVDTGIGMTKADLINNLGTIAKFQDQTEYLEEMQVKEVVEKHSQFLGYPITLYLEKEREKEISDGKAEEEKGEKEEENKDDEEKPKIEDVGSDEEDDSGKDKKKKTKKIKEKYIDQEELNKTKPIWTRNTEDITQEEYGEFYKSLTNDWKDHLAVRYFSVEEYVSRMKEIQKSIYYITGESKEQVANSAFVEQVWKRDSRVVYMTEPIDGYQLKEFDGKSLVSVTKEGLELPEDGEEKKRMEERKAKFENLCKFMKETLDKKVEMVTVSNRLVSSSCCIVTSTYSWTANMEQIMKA
CNBP, sequence (P62633 whole entry): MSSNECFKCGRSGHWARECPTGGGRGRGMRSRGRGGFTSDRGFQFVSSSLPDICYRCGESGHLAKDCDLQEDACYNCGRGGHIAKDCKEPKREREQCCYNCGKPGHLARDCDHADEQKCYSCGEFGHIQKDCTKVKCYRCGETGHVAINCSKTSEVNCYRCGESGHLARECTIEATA
TUBB2A, sequence (Q13885 whole entry): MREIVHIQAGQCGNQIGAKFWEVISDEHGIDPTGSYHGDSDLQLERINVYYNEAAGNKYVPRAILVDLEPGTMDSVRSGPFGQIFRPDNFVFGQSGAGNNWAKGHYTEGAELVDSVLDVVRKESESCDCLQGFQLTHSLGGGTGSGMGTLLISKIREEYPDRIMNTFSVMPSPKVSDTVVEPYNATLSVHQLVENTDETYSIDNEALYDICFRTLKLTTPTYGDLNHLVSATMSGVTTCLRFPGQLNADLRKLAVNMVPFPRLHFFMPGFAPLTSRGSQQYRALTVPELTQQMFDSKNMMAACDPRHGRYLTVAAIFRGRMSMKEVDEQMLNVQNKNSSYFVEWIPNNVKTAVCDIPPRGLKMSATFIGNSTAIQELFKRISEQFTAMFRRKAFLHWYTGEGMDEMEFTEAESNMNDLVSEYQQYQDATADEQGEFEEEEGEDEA

UAUUUAU
Kd (CNBP): 1270 nM | Kd (ZCCHC11): 91.8 nM | Kd (TRIM56): 2880 nM

CUGUCCU
Kd (MRPL38): 40.7 nM | Kd (RPS3): 109 nM | Kd (MRPL21): 57.2 nM | Kd (RPSA): 187 nM

AAUAAA
Kd (RPS17): 126 nM | Kd (TUBB2A): 1030 nM | Kd (HSP90AB2P): 108 nM | Kd (GPALPP1): 33 nM | Kd (RBM47): 417 nM | Kd (TIA1): 158 nM
